Results as given in PMC3392545.

Target: human STING C-terminal domain (CTD) containing residues 155 to 341 (human) (UniProt Q86WV6)
Experiment: SEC

How did the stoichiometry N turn out when “human STING C-terminal domain (CTD) containing residues 155 to 341 (from UniProt Q86WV6 155-341) (domain or fragment)” was run?
Its stoichiometry N is 2.
